From US20250034239A1 (LINNO PHARMACEUTICALS, published 2025)
One block for each binder: values may come before it.

How the values were obtained:
[1] = biological target: T1, human transferrin (Sigma T3309) (human, UniProt P02787 20-698); test: flow cytometry on HEK293F-hTfR1 cells with human transferrin, pH 6.0
T1 construct: mature; same polypeptide; also called native human transferrin; hTf
Description: (§1) HEK293F-hTfR1 cells were prepared by transfecting hTfR1-expressing plasmid, with a GFP tag, into HEK293F cells. Stable pool was used for this assay. Briefly, the engineered HEK293F cells expressing hTfR1 were cultured with OPM-293 CD05 medium at 37° C., with 8% CO₂ and saturated humidity in cell shaker. […] The cells were washed twice by centrifugation at 300 g for 5 min at 4° C., before rabbit anti-OVA antibodies and a secondary anti-rabbit IgG-AF647 (all prepared in blocking buffer). The cells were scanned with CytoFLEX (Beckman).

[2] = biological target: T1, human transferrin (Sigma T3309); test: flow cytometry on HEK293F-hTfR1 cells with human transferrin, pH 7.4
Description: as §1

[3] = biological target: T2, human properdin (human, UniProt P27918 28-469, biotinylated); test: ELISA on biotinylated truncated variants of human properdin, VHH-Fc at 10 µg/ml
T2 construct: Recombinant, made in house; tag not described; In the hemolysis assays the target is the properdin of human serum; also called human properdin-biotin; biotin human Properdin
T2 sequence (P27918 28-469 limits assumed): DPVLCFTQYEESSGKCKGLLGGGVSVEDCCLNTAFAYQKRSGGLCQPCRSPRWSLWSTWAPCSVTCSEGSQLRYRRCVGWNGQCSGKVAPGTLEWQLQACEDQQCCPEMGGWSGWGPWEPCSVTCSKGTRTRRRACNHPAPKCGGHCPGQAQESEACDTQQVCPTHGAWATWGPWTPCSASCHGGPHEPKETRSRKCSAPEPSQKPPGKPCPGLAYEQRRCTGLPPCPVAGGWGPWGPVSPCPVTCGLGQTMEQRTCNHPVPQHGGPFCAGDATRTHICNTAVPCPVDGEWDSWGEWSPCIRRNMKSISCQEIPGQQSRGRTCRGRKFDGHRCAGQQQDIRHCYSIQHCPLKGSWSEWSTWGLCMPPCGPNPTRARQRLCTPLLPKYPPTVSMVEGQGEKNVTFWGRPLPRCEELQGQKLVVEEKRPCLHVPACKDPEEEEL
Description: 96-well immunoplates were coated with 100 μl/well 1 μg/ml streptavidin and incubate at 4° C. overnight. Wells were washed with PBST for 3 times and blocked with 200 μl of 1% BSA/PBS at RT for 1 h. […] Plates were washed with PBST for 3 times, 100 μl/well 10 μg/ml VHH-Fcs were added and incubate at RT for 1 h. Plates were washed with PBST for 3 times and add 100 μl goat anti-human Fc-HRP (Sigma, A0170) diluted 1/5000 in 1% BSA/PBST to each well and incubate at RT for 1 h. Plates were then washed as before and add 100 μl TMB substrate and incubate at RT for 15 min. 100 μl per well stop solution was added to stop the reaction, and the plates were read with microplate reader at 450 nm.

[4] = biological target: T1, human transferrin (Sigma T3309); test: flow cytometry on HEK293F-hTfR1 cells with human transferrin, pH 7.4; grade by % binding (10% > + ≥ 5%)
Description: as §1

[5] = biological target: T1, human transferrin (Sigma T3309); test: flow cytometry on HEK293F-hTfR1 cells with human transferrin, pH 6.0; grade by % binding (10% > + ≥ 5%); non-specific binding column also +
Description: as §1

[6] = biological target: T3, human transferrin receptor 1 on HEK293F-hTfR1 cells (human, UniProt P02786 1-760); test: flow cytometry on HEK293F-hTfR1 cells with or without transferrin
T3 construct: whole, on cells
T3 sequence (P02786 whole entry): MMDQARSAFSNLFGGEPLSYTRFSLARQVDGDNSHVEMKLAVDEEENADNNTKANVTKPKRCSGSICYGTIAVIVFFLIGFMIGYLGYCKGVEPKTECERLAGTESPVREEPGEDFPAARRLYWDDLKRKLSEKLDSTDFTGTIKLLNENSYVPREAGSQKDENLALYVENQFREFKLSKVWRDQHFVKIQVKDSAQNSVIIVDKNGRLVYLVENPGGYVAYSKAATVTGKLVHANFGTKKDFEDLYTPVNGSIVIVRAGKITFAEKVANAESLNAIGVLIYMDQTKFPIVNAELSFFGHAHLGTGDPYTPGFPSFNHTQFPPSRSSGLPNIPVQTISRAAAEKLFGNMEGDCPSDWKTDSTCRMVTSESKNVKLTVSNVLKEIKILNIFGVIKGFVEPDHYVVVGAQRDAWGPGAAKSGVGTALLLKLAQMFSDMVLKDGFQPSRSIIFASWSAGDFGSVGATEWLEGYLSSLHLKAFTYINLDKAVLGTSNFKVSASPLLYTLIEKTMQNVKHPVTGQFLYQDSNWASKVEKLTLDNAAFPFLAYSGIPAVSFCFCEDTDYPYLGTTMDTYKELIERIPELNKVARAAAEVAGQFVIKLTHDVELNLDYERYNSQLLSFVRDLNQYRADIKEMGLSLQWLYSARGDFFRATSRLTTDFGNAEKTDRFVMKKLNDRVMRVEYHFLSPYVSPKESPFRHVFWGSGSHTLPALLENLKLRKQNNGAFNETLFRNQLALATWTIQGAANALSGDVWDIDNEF
Description: as §1

[7] = biological target: T1, human transferrin (Sigma T3309); test: flow cytometry on HEK293F-hTfR1 cells with human transferrin, pH 7.4; grade by % binding (+++ ≥ 15%)
Description: as §1

T1 sequence (P02787 20-698): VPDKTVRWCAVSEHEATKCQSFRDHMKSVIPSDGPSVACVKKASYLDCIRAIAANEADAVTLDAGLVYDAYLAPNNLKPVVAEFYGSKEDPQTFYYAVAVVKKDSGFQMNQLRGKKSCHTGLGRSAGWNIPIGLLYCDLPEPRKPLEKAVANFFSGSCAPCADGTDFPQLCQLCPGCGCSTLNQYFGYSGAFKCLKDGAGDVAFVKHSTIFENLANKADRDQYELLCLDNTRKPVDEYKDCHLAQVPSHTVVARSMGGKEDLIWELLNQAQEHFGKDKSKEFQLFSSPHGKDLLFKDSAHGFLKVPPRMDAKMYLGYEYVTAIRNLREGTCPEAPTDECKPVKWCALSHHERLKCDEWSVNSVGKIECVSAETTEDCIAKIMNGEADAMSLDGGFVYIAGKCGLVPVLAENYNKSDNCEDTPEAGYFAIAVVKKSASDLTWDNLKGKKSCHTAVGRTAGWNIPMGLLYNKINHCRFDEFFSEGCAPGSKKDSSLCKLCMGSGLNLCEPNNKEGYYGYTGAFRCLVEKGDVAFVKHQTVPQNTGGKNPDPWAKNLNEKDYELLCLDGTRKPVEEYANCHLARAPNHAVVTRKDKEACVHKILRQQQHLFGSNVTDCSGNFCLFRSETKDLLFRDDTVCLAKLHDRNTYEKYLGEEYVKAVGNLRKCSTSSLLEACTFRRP

percent binding (flow cytometry, VHH/Tf on hTfR1-overexpressing cells, pH 6.0) [1]: < 5%
percent binding (flow cytometry, VHH/Tf on hTfR1-overexpressing cells, pH 7.4) [2]: < 5%
B1: SLN0066 VHH-OVA-His (negative control VHH) (VHH)
chain: HVQLVESGGGSVQAGGSLRLSCVASGIGHGFNNNCMGWFRQAPGKEREGVAAVYTGGGTPYYADSVKGRFTLSQDNAKNTLYLQMNGLDPEDTAMYYCVADIWRTYRCGAGDTTVFDYRGQGTLVTVSSGSIGAASMEFCFDVFKELKVHHANENIFYCPIAIMSALAMVYLGAKDSTRTQINKVVRFDKLPGFGDSIEAQCGTSVNVHSSLRDILNQITKPNDVYSFSLASRLYAEERYPILPEYLQCVKELYRGGLEPINFQTAADQARELINSWVESQTNGIIRNVLQPSSVDSQTAMVLVNAIVFKGLWEKAFKDEDTQAMPFRVTEQESKPVQMMYQIGLFRVASMASEKMKILELPFASGTMSMLVLLPDEVSGLEQLESIINFEKLTEWTSSNVMEERKIKVYLPRMKMEEKYNLTSVLMAMGITDVFSSSANLSGISSAESLKISQAVHAAHAEINEAGREVVGSAEAGVDAASVSEEFRADHPFLFCIKHIATNAVLFFGRCVSP
notes: not shown: His tag

binding result [3]: binds
B2: SLN12083 VHH-Fc (Fc fusion)
VHH: EVQLVESGGGLVQPGGSLRLSCAASEYTSSSYCMAWIRQAPGKGLEGVAAIDTDGSTSYTDSVKGRFTISRDNSKNTLYLQMNSLRAEDTAVYYCAAAPWLLAYGDYCVTRPDFGEWGQGTLVTVSS
notes: not shown: its position and linker are not fixed for the humanized single VHH

percent binding (flow cytometry, VHH/Tf on hTfR1-overexpressing cells, pH 7.4) [4]: 5 to 10%
percent binding (flow cytometry, VHH/Tf on hTfR1-overexpressing cells, pH 6.0) [5]: 5 to 10%
B3: SLN0064 VHH-OVA-His (VHH)
chain: HVQLVESGGGSVQAGGSLRLSCAASGYSVSWFCMGWFRQAPGLEREGVAVIDVDSIARYGDSVKGRFTISQGNSKDTVYLQMNGLKPEDTAMYYCAAKTERQCRWNWMDWRTYDYPHWGQGTQVTVSSGSIGAASMEFCFDVFKELKVHHANENIFYCPIAIMSALAMVYLGAKDSTRTQINKVVRFDKLPGFGDSIEAQCGTSVNVHSSLRDILNQITKPNDVYSFSLASRLYAEERYPILPEYLQCVKELYRGGLEPINFQTAADQARELINSWVESQTNGIIRNVLQPSSVDSQTAMVLVNAIVFKGLWEKAFKDEDTQAMPFRVTEQESKPVQMMYQIGLFRVASMASEKMKILELPFASGTMSMLVLLPDEVSGLEQLESIINFEKLTEWTSSNVMEERKIKVYLPRMKMEEKYNLTSVLMAMGITDVFSSSANLSGISSAESLKISQAVHAAHAEINEAGREVVGSAEAGVDAASVSEEFRADHPFLFCIKHIATNAVLFFGRCVSP
notes: Tested as recombinant VHH-OVA-His; not shown: His tag

binding result [3]: binds
B4: SLN12068 VHH-Fc (Fc fusion)
VHH: EVQLVESGGGLVQPGGSLRLSCAAFEYYYCMGWFRQAPGKGLEGVASFDTSDGSKYYADSVKGRFTISKDNSKNTLYLQMNSLRAEDTAVYYCAARPFYVGGTCLPRLTDFSIWGQGTLVTVSS
notes: as for B2

binding result [3]: binds
B5: SLN12075 VHH-Fc (Fc fusion)
VHH: EVQLVESGGGLVQPGGSLRLSCAASAYIYSSYCMGWFRQAPGKGLERVSVINSDGRTSYADSVKGRFTISRDNSKNTLYLQMNSLRAEDTAVYYCAAVILPPTDGMEYSCNYPAAEYNYWGQGTLVTVSS
notes: as for B2

percent binding (flow cytometry, VHH/Tf on hTfR1-overexpressing cells, pH 7.4) [2]: < 5%
percent binding (flow cytometry, VHH/Tf on hTfR1-overexpressing cells, pH 6.0) [5]: 5 to 10%
B6: SLN0057 VHH-OVA-His (VHH)
chain: HVQLVESGGGSVQAGGSLRLSCAASGHTYSIYYMAWFRQAPGKEREGVAVIYRGGSTTYADSAKGRFTVSQDNGKNTVYLQMNSLKAEDTAMYYCAAAHVLHVSSLLPGGYPYWGQGTLVTVSSGSIGAASMEFCFDVFKELKVHHANENIFYCPIAIMSALAMVYLGAKDSTRTQINKVVRFDKLPGFGDSIEAQCGTSVNVHSSLRDILNQITKPNDVYSFSLASRLYAEERYPILPEYLQCVKELYRGGLEPINFQTAADQARELINSWVESQTNGIIRNVLQPSSVDSQTAMVLVNAIVFKGLWEKAFKDEDTQAMPFRVTEQESKPVQMMYQIGLFRVASMASEKMKILELPFASGTMSMLVLLPDEVSGLEQLESIINFEKLTEWTSSNVMEERKIKVYLPRMKMEEKYNLTSVLMAMGITDVFSSSANLSGISSAESLKISQAVHAAHAEINEAGREVVGSAEAGVDAASVSEEFRADHPFLFCIKHIATNAVLFFGRCVSP
notes: as for B3

binding result [6]: no binding (tested: 10 µg/mL)
percent binding (flow cytometry, VHH/Tf on hTfR1-overexpressing cells, pH 6.0) [1]: < 5%
percent binding (flow cytometry, VHH/Tf on hTfR1-overexpressing cells, pH 7.4) [7]: ≥ 15%
B7: SLN0042 VHH-OVA-His (VHH)
chain: DVQLVESGGGSVQAGGSLRLSCAASGYTRSFTCMGWFRQAPGKEREGVATINPGTGSTYYADSVKGRFSISQDNAKNTVYLQMNTLKPEDTAMYYCAATQLFGCGSLAKSLFGYWGQGTLVTVSSGSIGAASMEFCFDVFKELKVHHANENIFYCPIAIMSALAMVYLGAKDSTRTQINKVVRFDKLPGFGDSIEAQCGTSVNVHSSLRDILNQITKPNDVYSFSLASRLYAEERYPILPEYLQCVKELYRGGLEPINFQTAADQARELINSWVESQTNGIIRNVLQPSSVDSQTAMVLVNAIVFKGLWEKAFKDEDTQAMPFRVTEQESKPVQMMYQIGLFRVASMASEKMKILELPFASGTMSMLVLLPDEVSGLEQLESIINFEKLTEWTSSNVMEERKIKVYLPRMKMEEKYNLTSVLMAMGITDVFSSSANLSGISSAESLKISQAVHAAHAEINEAGREVVGSAEAGVDAASVSEEFRADHPFLFCIKHIATNAVLFFGRCVSP
notes: as for B3

percent binding (flow cytometry, VHH/Tf on hTfR1-overexpressing cells, pH 7.4) [2]: < 5%
percent binding (flow cytometry, VHH/Tf on hTfR1-overexpressing cells, pH 6.0) [5]: 5 to 10%
B8: SLN0059 VHH-OVA-His (VHH)
chain: HVQLVESGGGSVQSGGSLRLSCAASGITISNYYMTWFRQAPGKEREGVAGLTRADVTLYADSVKGRFTISRDNAKNTLYLQMNSLKPEDTAMYYCAAADRFRVGLREADFSAWGQGTQVTVSSGSIGAASMEFCFDVFKELKVHHANENIFYCPIAIMSALAMVYLGAKDSTRTQINKVVRFDKLPGFGDSIEAQCGTSVNVHSSLRDILNQITKPNDVYSFSLASRLYAEERYPILPEYLQCVKELYRGGLEPINFQTAADQARELINSWVESQTNGIIRNVLQPSSVDSQTAMVLVNAIVFKGLWEKAFKDEDTQAMPFRVTEQESKPVQMMYQIGLFRVASMASEKMKILELPFASGTMSMLVLLPDEVSGLEQLESIINFEKLTEWTSSNVMEERKIKVYLPRMKMEEKYNLTSVLMAMGITDVFSSSANLSGISSAESLKISQAVHAAHAEINEAGREVVGSAEAGVDAASVSEEFRADHPFLFCIKHIATNAVLFFGRCVSP
notes: as for B3

binding result [6]: no binding (tested: 10 µg/mL)
percent binding (flow cytometry, VHH/Tf on hTfR1-overexpressing cells, pH 6.0) [1]: < 5%
B9: SLN0043 VHH-OVA-His (VHH)
chain: DVQLVESGGGSVQAGGSLRLSCAASGVTWSRDWMAWFRQAPGKEREGVAAFVPSIGSTFYVDSVKGRFTISQDNAKNTLFLQMNSLKPEDTAMYYCATDPLWGRKYGGSWSDPSEYNYWGQGTQVTVSSGSIGAASMEFCFDVFKELKVHHANENIFYCPIAIMSALAMVYLGAKDSTRTQINKVVRFDKLPGFGDSIEAQCGTSVNVHSSLRDILNQITKPNDVYSFSLASRLYAEERYPILPEYLQCVKELYRGGLEPINFQTAADQARELINSWVESQTNGIIRNVLQPSSVDSQTAMVLVNAIVFKGLWEKAFKDEDTQAMPFRVTEQESKPVQMMYQIGLFRVASMASEKMKILELPFASGTMSMLVLLPDEVSGLEQLESIINFEKLTEWTSSNVMEERKIKVYLPRMKMEEKYNLTSVLMAMGITDVFSSSANLSGISSAESLKISQAVHAAHAEINEAGREVVGSAEAGVDAASVSEEFRADHPFLFCIKHIATNAVLFFGRCVSP
notes: as for B3

percent binding (flow cytometry, VHH/Tf on hTfR1-overexpressing cells, pH 7.4) [4]: 5 to 10%
percent binding (flow cytometry, VHH/Tf on hTfR1-overexpressing cells, pH 6.0) [5]: 5 to 10%
B10: SLN0062 VHH-OVA-His (VHH)
chain: QVQLVESGGGSVQSGGSLRLSCAASGYTFSRNCMGWFRQTPGKERERVATVYPGGGSTYYADSVKGRFTFSQDNAKNAIYLQMNTLKPEDTGMYYCAASRRIWSCGSGAGSYDYWGQGTQVTVSSGSIGAASMEFCFDVFKELKVHHANENIFYCPIAIMSALAMVYLGAKDSTRTQINKVVRFDKLPGFGDSIEAQCGTSVNVHSSLRDILNQITKPNDVYSFSLASRLYAEERYPILPEYLQCVKELYRGGLEPINFQTAADQARELINSWVESQTNGIIRNVLQPSSVDSQTAMVLVNAIVFKGLWEKAFKDEDTQAMPFRVTEQESKPVQMMYQIGLFRVASMASEKMKILELPFASGTMSMLVLLPDEVSGLEQLESIINFEKLTEWTSSNVMEERKIKVYLPRMKMEEKYNLTSVLMAMGITDVFSSSANLSGISSAESLKISQAVHAAHAEINEAGREVVGSAEAGVDAASVSEEFRADHPFLFCIKHIATNAVLFFGRCVSP
notes: as for B3
